Laboratory results from article PMC9378701, “SH3 domain regulation of RhoGAP activity: Crosstalk between p120RasGAP and DLC1 RhoGAP” (Nature Communications, 2022).

Columns and labels:
[1] = target: DLC1 RhoGAP (Homo sapiens) (UniProt Q96QB1); assay: ITC; settings: cited from earlier work
[2] = target: DLC1 RhoGAP (Homo sapiens) (UniProt Q96QB1); assay: kinetics; settings: cited from earlier work
[3] = target: T1, DLC1 RhoGAP domain (residues 1074-1283), His6-tagged (human, UniProt Q96QB1 1074-1283); assay: crystal structure; copurified complex of DLC1 RhoGAP with p120RasGAP SH3 at 18 mg/ml; 0.2 M magnesium nitrate, 16.5% PEG 3350, hanging drops, ambient temperature (~22 °C); 3.2 Å, four copies of the complex in the asymmetric unit; settings: both partners purified
T1 construct: RhoGAP domain of human DLC1A, residues 1074-1283 of UniProt Q96QB1 isoform 2; Vector pET28-MHL; also called DLC1A; His6-DLC1; source: E. coli BL21(DE3) or Rosetta(DE3), purified (Ni-NTA, SEC)
T1 sequence (looked up): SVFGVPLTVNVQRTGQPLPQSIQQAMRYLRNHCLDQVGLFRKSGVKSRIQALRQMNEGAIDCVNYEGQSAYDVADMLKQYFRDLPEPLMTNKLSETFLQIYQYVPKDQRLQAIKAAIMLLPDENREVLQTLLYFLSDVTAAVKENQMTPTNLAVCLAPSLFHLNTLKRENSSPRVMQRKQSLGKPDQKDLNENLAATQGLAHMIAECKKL

Sequence of DLC1 RhoGAP (Homo sapiens) (Q96QB1 1075-1287): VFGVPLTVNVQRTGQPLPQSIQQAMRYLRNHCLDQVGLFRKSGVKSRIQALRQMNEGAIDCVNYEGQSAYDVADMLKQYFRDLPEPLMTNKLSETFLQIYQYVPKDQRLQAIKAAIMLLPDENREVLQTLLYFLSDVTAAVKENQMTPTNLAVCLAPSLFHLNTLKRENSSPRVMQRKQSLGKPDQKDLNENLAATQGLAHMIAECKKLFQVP

In the case of p120RasGAP SH3 (from UniProt P20936), the Kd [1] is listed as 600 nM and the Ki [2] is listed as 600 nM.

B1: p120RasGAP SH3 domain (residues 281-341) (domain or fragment, human, UniProt P20936 281-341, looked up)
chain: RRRVRAILPYTKVPDTDEISFLKGDMFIVHNELEDGWMWVTNLRTDEQGLIVEDLVEEVGR
notes: SH3 domain of human p120RasGAP, residues 281-341 of UniProt P20936; Vector pGEX-6p1; also called SH3 WT; RASA1; source: E. coli BL21(DE3) or Rosetta(DE3), purified (glutathione Sepharose, PreScission cleavage on beads, SEC)
B1: binds [3].
